The supplement of paper PMC11246515
± gives the standard deviation of the averaged measurements.

Assay: total protein half-life in vivo (active degradation + dilution); higher = more stable protein
[1] = wild type E. coli NCM3722, growth: N-lim chemostat, doubling time 12 h
[2] = E. coli NCM3722 delta-clpP delta-lon delta-hslV, growth: N-lim chemostat, doubling time 6 h
[3] = E. coli NCM3722 delta-clpP, growth: N-lim chemostat, doubling time 6 h
[4] = E. coli NCM3722 delta-hslV, growth: N-lim chemostat, doubling time 6 h
[5] = E. coli NCM3722 delta-lon, growth: N-lim chemostat, doubling time 6 h
[6] = E. coli NCM3722 delta-smpB, growth: N-lim chemostat, doubling time 6 h
[7] = wild type E. coli NCM3722, growth: C-lim chemostat, doubling time 3 h
[8] = wild type E. coli NCM3722, growth: C-lim chemostat, doubling time 6 h
[9] = wild type E. coli NCM3722, growth: N-lim chemostat, doubling time 6 h
[10] = wild type E. coli NCM3722, growth: P-lim chemostat, doubling time 6 h
[11] = wild type E. coli NCM3722, growth: P-lim chemostat, doubling time 12 h
[12] = wild type E. coli NCM3722, growth: C-lim chemostat, doubling time 12 h

## MCEHHHAAKHILCSQCDMLVALPRLEHGQKAACPRCGTTLTVAWDAPRQRPTAYALAALFMLLLSNLFPFVNMNVAGVTSEITLLEIPGVLFSEDYASLGTFFLLFVQLVPAFCLITILLLVNRAELPVRLKEQLARVLFQLKTWGMAEIFLAGVLVSFVKLMAYGSIGVGSSFLPWCLFCVLQLRAFQCVDRRWLWDDIAPMPELRQPLKPGVTGIRQGLRSCSCCTAILPADEPVCPRCSTKGYVRRRNSLQWTLALLVTSIMLYLPANILPIMVTDLLGSKMPSTILAGVILLWSEGSYPVAAVIFLASIMVPTLKMIAIAWLCWDAKGHGKRDSERMHLIYEVVEFVGRWSMIDVFVIAVLSALVRMGGLMSIYPAMGALMFALVVIMTMFSAMTFDPRLSWDRQPESEHEES [P0AFL9]
[1]
  total protein half-life in vivo: 11 h

## MHHATPLITTIVGGLVLAFILGMLANKLRISPLVGYLLAGVLAGPFTPGFVADTKLAPELAELGVILLMFGVGLHFSLKDLMAVKAIAIPGAIAQIAVATLLGMALSAVLGWSLMTGIVFGLCLSTASTVVLLRALEERQLIDSQRGQIAIGWLIVEDLVMVLTLVLLPAVAGMMEQGDVGFATLAVDMGITIGKVIAFIAIMMLVGRRLVPWIMARSAATGSRELFTLSVLALALGVAFGAVELFDVSFALGAFFAGMVLNESELSHRAAHDTLPLRDAFAVLFFVSVGMLFDPLILIQQPLAVLATLAIILFGKSLAAFFLVRLFGHSQRTALTIAASLAQIGEFAFILAGLGMALNLLPQAGQNLVLAGAILSIMLNPVLFALLEKYLAKTETLEEQTLEEAIEEEKQIPVDICNHALLVGYGRVGSLLGEKLLASDIPLVVIETSRTRVDELRERGVRAVLGNAANEEIMQLAHLECAKWLILTIPNGYEAGEIVASARAKNPDIEIIARAHYDDEVAYITERGANQVVMGEREIARTMLELLETPPAGEVVTG
[2]
  total protein half-life in vivo: 7.0037 ± 0.0035 h
[3]
  total protein half-life in vivo: 6.7 ± 0.41 h
[4]
  total protein half-life in vivo: 6.3 ± 0.52 h
[5]
  total protein half-life in vivo: 6.24 ± 1.1 h
[6]
  total protein half-life in vivo: 6.31 ± 0.61 h
[7]
  total protein half-life in vivo: > 4 h
[8]
  total protein half-life in vivo: 5.87 ± 0.64 h
[9]
  total protein half-life in vivo: 5.84 ± 0.9 h
[1]
  total protein half-life in vivo: 12.7 ± 0.69 h
[10]
  total protein half-life in vivo: 6.44 ± 0.68 h
[11]
  total protein half-life in vivo: 12.6 ± 0.86 h

## MTNLNYQQTHFVMSAPDIRHLPSDTGIEVAFAGRSNAGKSSALNTLTNQKSLARTSKTPGRTQLINLFEVADGKRLVDLPGYGYAEVPEEMKRKWQRALGEYLEKRQSLQGLVVLMDIRHPLKDLDQQMIEWAVDSNIAVLVLLTKADKLASGARKAQLNMVREAVLAFNGDVQVETFSSLKKQGVDKLRQKLDTWFSEMQPVEETQDGE [P0A6P7]
[2]
  total protein half-life in vivo: 5.33 ± 0.22 h
[3]
  total protein half-life in vivo: 6.45 ± 1.6 h
[4]
  total protein half-life in vivo: 5.05 ± 0.074 h
[5]
  total protein half-life in vivo: 5.83 ± 0.38 h
[6]
  total protein half-life in vivo: 5.19 ± 0.42 h
[7]
  total protein half-life in vivo: 2.924 ± 0.022 h
[8]
  total protein half-life in vivo: 5.58 ± 0.19 h
[12]
  total protein half-life in vivo: 11.2 ± 0.46 h
[9]
  total protein half-life in vivo: 5.08 ± 0.32 h
[1]
  total protein half-life in vivo: 9.45 ± 0.2 h
[10]
  total protein half-life in vivo: 5.59 ± 0.11 h
[11]
  total protein half-life in vivo: 11.4 ± 0.91 h

## MSIDRTSPLKPVSTVQPRETTDAPVTNSRAAKTTASTSTSVTLSDAQAKLMQPGSSDINLERVEALKLAIRNGELKMDTGKIADALINEAQQDLQSN [P0AEM4]
[7]
  total protein half-life in vivo: 0.693 ± 0.42 h
[8]
  total protein half-life in vivo: 0.442 h
[12]
  total protein half-life in vivo: 0.862 ± 0.19 h

## MVTINNARKILQRVDTLPLYLHAYAFHLNMRLERVLPADLLDIASENNLRGVKIHVLDGERFSLGNMDDKELSAFGDKARRLNLDIHIETSASDKASIDEAVAIALKTGASSVRFYPRYEGNLRDVLSIIANDIAYVRETYQDSGLTFTIEQHEDLKSHELVSLVKESEMESLSLLFDFANMINANEHPIDALKTMAPHITQVHIKDALIVKEPGGLGHKACISGQGDMPFKALLTHLICLGDDEPQVTAYGLEEEVDYYAPAFRFEDEDDNPWIPYRQMSETPLPENHLLDARLRKEKEDAINQINHVRNVLQQIKQEANHLLNH
[2]
  total protein half-life in vivo: 4.45 ± 0.4 h
[3]
  total protein half-life in vivo: 2.09 ± 0.14 h
[4]
  total protein half-life in vivo: 2.28 ± 0.57 h
[5]
  total protein half-life in vivo: 3.21 h
[6]
  total protein half-life in vivo: 1.68 ± 0.29 h
[7]
  total protein half-life in vivo: 1.99 ± 0.052 h
[8]
  total protein half-life in vivo: 2.9 h
[12]
  total protein half-life in vivo: 4.36 ± 0.28 h
[9]
  total protein half-life in vivo: 2.77 h
[1]
  total protein half-life in vivo: 3.27 ± 0.036 h
[10]
  total protein half-life in vivo: 2.88 h
[11]
  total protein half-life in vivo: 4.74 ± 0.53 h

## MKISRLGEAPDYRFSLANERTFLAWIRTALGFLAAGVGLDQLAPDFATPVIRELLALLLCLFSGGLAMYGYLRWLRNEKAMRLKEDLPYTNSLLIISLILMVVAVIVMGLVLYAG [P0ADM0]
[8]
  total protein half-life in vivo: 5.742 ± 0.053 h
[12]
  total protein half-life in vivo: > 16 h
[9]
  total protein half-life in vivo: 5.98 h
[10]
  total protein half-life in vivo: 5.91 h
[11]
  total protein half-life in vivo: 5 h

## MGSGWHEWPLMIFTVFGQCVAGGFIVLALALLKGDLRAEAQQRVIACMFGLWVLMGIGFIASMLHLGSPMRAFNSLNRVGASALSNEIASGSIFFAVGGIGWLLAMLKKLSPALRTLWLIVTMVLGVIFVWMMVRVYNSIDTVPTWYSIWTPMGFFLTMFMGGPLLGYLLLSLAGVDGWAMRLLPAISVLALVVSGVVSVMQGAELATIHSSVQQAAALVPDYGALMSWRIVLLAVALCLWIAPQLKGYQPAVPLLSVSFILLLAGELIGRGVFYGLHMTVGMAVAS
[8]
  total protein half-life in vivo: 5.22 h
[11]
  total protein half-life in vivo: 10.9 h

## MDKSKRHLAWWVVGLLAVAAIVAWWLLRPAGVPEGFAVSNGRIEATEVDIASKIAGRIDTILVKEGKFVREGEVLAKMDTRVLQEQRLEAIAQIKEAQSAVAAAQALLEQRQSETRAAQSLVNQRQAELDSVAKRHTRSRSLAQRGAISAQQLDDDRAAAESARAALESAKAQVSASKAAIEAARTNIIQAQTRVEAAQATERRIAADIDDSELKAPRDGRVQYRVAEPGEVLAAGGRVLNMVDLSDVYMTFFLPTEQAGTLKLGGEARLILDAAPDLRIPATISFVASVAQFTPKTVETSDERLKLMFRVKARIPPELLQQHLEYVKTGLPGVAWVRVNEELPWPDDLVVRLPQ
[2]
  total protein half-life in vivo: 7.13 ± 1.2 h
[3]
  total protein half-life in vivo: 6.23 ± 0.4 h
[4]
  total protein half-life in vivo: 6.68 ± 0.17 h
[5]
  total protein half-life in vivo: 6.78 ± 0.59 h
[6]
  total protein half-life in vivo: 5.93 ± 0.0093 h
[7]
  total protein half-life in vivo: 3.27 ± 0.32 h
[8]
  total protein half-life in vivo: 6.21 ± 0.2 h
[12]
  total protein half-life in vivo: 13 ± 1 h
[9]
  total protein half-life in vivo: 6.37 ± 0.43 h
[1]
  total protein half-life in vivo: 13.5 ± 1.4 h
[10]
  total protein half-life in vivo: 6.03 ± 0.35 h
[11]
  total protein half-life in vivo: 12.9 ± 0.49 h
